Data from publication PMC11883000, “Structure-function relationship of ASH1L and histone H3K36 and H3K4 methylation” (Nature Communications, 2025).

Molecular target: Substitution of D2595 or D2584 with alanine (ASH1L PHD finger mutants)
Test: not stated; wild type and mutants of ASH1LPHD with H3K4me3 peptide (Fig. 3c, Supplementary Figs. 5 and 6); the legend names tryptophan fluorescence, MST or NMR, which for each mutant is marked only in the figure

Substance: histone H3K4me3 peptide (aa 1-12 of H3) (from UniProt P68431 2-13)
- Kd: 5 to 7 µM
